According to patent US20010055591A1 (WISYS TECHNOLOGY FOUNDATION, published 2001):
Where a chain is given by its changes, count along the chain named. Names and notes keep the numbering of the source.

Assays:
thrombin (free thrombin) [1] = target: T1, thrombin (free thrombin) (human, UniProt P00734 328-622); assay: ratio of κ2 with heparin to κ2 without heparin
Description: (§1) Serine Protease Inhibition Assays. The rates of inhibition of the serine proteases thrombin, factor Xa and APC in the presence and absence of heparin were measured using discontinuous assays under pseudo-first order rate conditions as described previously (Phillips et al., 1994; Rezaie et al., 1995). Protein was diluted in TBS buffer containing 0.1 mg/ml BSA, 0.1% PEG 8000, and 0.01% azide to a final reaction volume of 50 μl. […] Substrates used were Spectrozyme TH (SpTH) for thrombin and trypsin, PCA (SpPCA) for APC, and FXa (SpFXa) for Factor Xa (American Diagnostica, Greenwich, Conn.). Absorbances were determined using a SpectraMax Plus plate reader (Molecular Devices, Sunnyvale, Calif.). Absorbance is directly related to residual protease activity. In assays containing heparin, 1 mg/ml Polybrene was added to the substrate to block further heparin binding during substrate development. For heparin template curve data, varying concentrations (0-1000 μg/ml) of unfractionated heparin were added and proteins were diluted in HNPN buffer. For remaining heparin assays, the resulting optimal heparin concentration (5 μg/ml) was used. […] TM was either purified rabbit TM (RTM) or recombinant 4-6 TM (provided by Dr. Alireza Rezaie). Second-order rate constants of thrombin inhibition were determined using the following equation: […]
(§2) Inhibition in the presence of heparin. Thrombin inhibition is accelerated (300- to 1000-fold) in the presence of heparin (Olson et al., 1992). […] Changes in heparin binding domains may alter the concentration of heparin required for the fastest rate of thrombin inhibition.

[2] = target: T2, thrombin bound to 4-6 TM (recombinant EGF repeats 4-6 of thrombomodulin) (human, UniProt P00734 328-622; P07204 363-483); assay: ratio of κ2 with 4-6 TM to κ2 on free thrombin
Description: as §1, with “Protein” for “Serine Protease Inhibition Assays. The rates of inhibition of the serine proteases thrombin, factor Xa and APC in the presence and absence of heparin were measured using discontinuous assays under pseudo-first order rate conditions as described previously (Phillips et al., 1994; Rezaie et al., 1995). Protein”
(§3) Inhibition in the presence of TM.

trypsin = target: T3, trypsin; assay: discontinuous trypsin inhibition assay, chromogenic substrate SpTH
T3 construct: The source of the trypsin is doubtful, so see recheck
Description: as §1
Trypsin inhibition assays were performed to examine the overall activity of each mutant protein.

thrombin (free thrombin) [3] = target: T1, thrombin (free thrombin); assay: discontinuous thrombin inhibition assay, chromogenic substrate; no TM
Description: as §1, §3

Factor Xa = target: T4, Factor Xa (human, UniProt P00742 41-179; P00742 235-488, limits assumed); assay: discontinuous Factor Xa inhibition assay, chromogenic substrate SpFXa
T4 construct: also called FXa
Description: as §1

thrombin (free thrombin) [4] = target: T1, thrombin (free thrombin); assay: discontinuous thrombin inhibition assay, chromogenic substrate; no heparin
Description: as §1, §2

thrombin (free thrombin) [5] = target: T1, thrombin (free thrombin); assay: discontinuous thrombin inhibition assay, chromogenic substrate; with 5 µg/ml heparin
Description: as §1, §2

[6] = target: T2, thrombin bound to 4-6 TM (recombinant …); assay: discontinuous thrombin inhibition assay, chromogenic substrate; thrombin with 4-6 TM
Description: as §1, §3

[7] = target: thrombin bound to rabbit thrombomodulin (RTM) (human; rabbit, UniProt P00734 328-622; Q8HZ48 21-576); assay: ratio of κ2 with RTM to κ2 on free thrombin
Description: as §1

[8] = target: T2, thrombin bound to 4-6 TM (recombinant …); assay: ratio of κ2 with 4-6 TM to κ2 on free thrombin; remark: listed apart in the source

T4 sequence (P00742 41-179 limits assumed, form in doubt, chain 1 of 2): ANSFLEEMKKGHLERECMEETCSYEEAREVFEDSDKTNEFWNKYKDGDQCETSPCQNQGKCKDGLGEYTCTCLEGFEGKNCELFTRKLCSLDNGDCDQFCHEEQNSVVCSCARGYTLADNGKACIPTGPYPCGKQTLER
T4 sequence (P00742 235-488 limits assumed, form in doubt, chain 2 of 2): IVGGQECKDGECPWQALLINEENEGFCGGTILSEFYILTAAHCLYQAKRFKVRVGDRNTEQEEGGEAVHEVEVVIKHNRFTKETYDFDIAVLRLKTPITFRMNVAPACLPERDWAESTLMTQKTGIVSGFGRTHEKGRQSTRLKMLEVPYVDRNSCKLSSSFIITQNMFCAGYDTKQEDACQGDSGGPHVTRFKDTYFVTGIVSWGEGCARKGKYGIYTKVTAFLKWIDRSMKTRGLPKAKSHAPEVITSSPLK

B1: AT-P3R (antithrombin with the PCI reactive site loop and an arginine at P3) (other)
chain: HGSPVDICTAKPRDIPMNPMCIYRSPEKKATEDEGSEQKIPEATNRRVWELSKANSRFATTFYQHLADSKNDNDNIFLSPLSISTAFAMTKLGACNDTLQQLMEVFKFDTISEKTSDQIHFFFAKLNCRLYRKANKSSKLVSANRLFGDKSLTFNETYQDISELVYGAKLQPLDFKENAEQSRAAINKWVSNKTEGRITDVIPSEAINELTVLVLVNTIYFKGLWKSKFSPENTRKELFYKADGESCSASMMYQEGKFRYRRVAEGTQVLELPFKGDDITMVLILPKPEKSLAKVEKELTPEVLQEWLDELEEMMLVVHMPRFRIEDGFSLKEQLQDMGLVDLFSPEKSKLPGIVAEGRDDLYVSDAFHKAFLEVNEEGSEAAASTAVVIRFRSARPNRVTFKANRPFLVFIREVPLNTIIFMGRVANPCVK
notes: I derived them from P1′ = serine 394 of mature antithrombin
Ratio (+/-) of κ2 with and without heparin (thrombin (free thrombin) [1]): 263 fold
Ratio (+/-) of κ2 with and without 4-6 TM [2]: 0.6 fold
second-order rate constant (κ2) of inhibition (trypsin): 10000 M⁻¹ s⁻¹
second-order rate constant (κ2) of inhibition (thrombin (free thrombin) [3]): 2000 M⁻¹ s⁻¹
second-order rate constant (κ2) of inhibition (Factor Xa): 260 M⁻¹ s⁻¹
second-order rate constant (κ2) of inhibition (thrombin (free thrombin) [4]): 4800 M⁻¹ s⁻¹
second-order rate constant (κ2) of inhibition (thrombin (free thrombin) [5]): 1.3e+06 M⁻¹ s⁻¹
second-order rate constant (κ2) of inhibition [6]: 1200 M⁻¹ s⁻¹

B2: AT-rsl (antithrombin with the reactive site loop sequence of PCI) (other, Homo sapiens, UniProt P01008 33-464, looked up)
chain: B1 chain with R391T
notes: mature; I derived them from P1′ = serine 394 of mature antithrombin; also called AT-rs1; Reactive site loop mutant
Ratio (+/-) of κ2 with and without heparin (thrombin (free thrombin) [1]): 210 fold
Ratio (+/-) of κ2 with and without 4-6 TM [2]: 0.7 fold
second-order rate constant (κ2) of inhibition (trypsin): 6100 M⁻¹ s⁻¹
second-order rate constant (κ2) of inhibition (thrombin (free thrombin) [3]): 3400 M⁻¹ s⁻¹
second-order rate constant (κ2) of inhibition (thrombin (free thrombin) [4]): 3000 M⁻¹ s⁻¹
second-order rate constant (κ2) of inhibition (thrombin (free thrombin) [5]): 630000 M⁻¹ s⁻¹
second-order rate constant (κ2) of inhibition [6]: 2500 M⁻¹ s⁻¹

B3: AT-pos (antithrombin H-helix mutant D309K, E310K, E312K, E313K) (other, Homo sapiens, UniProt P01008 33-464, looked up)
chain: B1 chain with D309K, E310K, E312K, E313K, R391A, F392G, A395L, R396N
notes: mature; The residue numbers appear to count on mature antithrombin; also called H-helix mutant Poly-K
Ratio to no TM (RTM) [7]: 90.7 fold
Ratio (+/-) of κ2 with and without heparin (thrombin (free thrombin) [1]): 34 fold
Ratio (+/-) of κ2 with and without 4-6 TM [2]: 3.7 fold
Ratio to no TM (4-6 TM) [8]: 3 fold
second-order rate constant (κ2) of inhibition (trypsin): 9500 M⁻¹ s⁻¹
second-order rate constant (κ2) of inhibition (thrombin (free thrombin) [3]): 5500 M⁻¹ s⁻¹
second-order rate constant (κ2) of inhibition (Factor Xa): 1000 M⁻¹ s⁻¹
second-order rate constant (κ2) of inhibition (thrombin (free thrombin) [4]): 5300 M⁻¹ s⁻¹
second-order rate constant (κ2) of inhibition (thrombin (free thrombin) [5]): 180000 M⁻¹ s⁻¹
second-order rate constant (κ2) of inhibition [6]: 20000 M⁻¹ s⁻¹
